Experimental data published in patent US20100260668A1 (published 2010).
Several values for one entry are separate records, joined by “and”; a condition that tells them apart may be missing. Identical values can stand only once.

Legend:
[1] = biological target: T1, DLL4 ECD/His tag (R&D 1506-D4-050) (UniProt Q9NR61 27-529); experiment: direct bind ELISA, DLL4 on plate; DLL4 VD C-term.; HC Short, LC Long
T1 construct: extracellular domain; Bought antigen coated on the ELISA plate; not shown: His tag

[2] = biological target: recombinant human VEGF165 (human, UniProt P15692-4 27-191); experiment: cell-based or functional assay
Chain of recombinant human VEGF165 (P15692 other isoform, or with tags, fused parts or gaps limits assumed): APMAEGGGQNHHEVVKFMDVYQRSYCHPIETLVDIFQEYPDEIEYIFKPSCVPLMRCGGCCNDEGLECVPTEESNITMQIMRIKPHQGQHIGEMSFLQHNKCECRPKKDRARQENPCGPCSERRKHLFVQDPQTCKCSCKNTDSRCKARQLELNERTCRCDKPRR

Placental GF = biological target: T2, Placental GF (UniProt P49763-2 21-149, limits assumed); experiment: Biacore SPR
T2 construct: Bought reagent; also called PlGF; PLGF
T2 sequence (looked up): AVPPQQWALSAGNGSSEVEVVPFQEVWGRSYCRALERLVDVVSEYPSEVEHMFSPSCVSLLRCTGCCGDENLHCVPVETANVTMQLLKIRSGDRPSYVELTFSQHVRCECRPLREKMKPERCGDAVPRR
Protocol: (§1) The BIACORE assay (Biacore, Inc, Piscataway, N.J.) determines the affinity of antibodies or DVD-Ig with kinetic measurements of on-rate and off-rate constants. Binding of antibodies or DVD-Ig to a target antigen (for example, a purified recombinant target antigen) is determined by surface plasmon resonance-based measurements with a Biacore® 1000 or 3000 instrument (Biacore® AB, Uppsala, Sweden) using running HBS-EP (10 mM HEPES [pH 7.4], 150 mM NaCl, 3 mM EDTA, and 0.005% surfactant P20) at 25° C. […] For example, approximately 5000 RU of goat anti-mouse IgG, (Fcγ), fragment specific polyclonal antibody (Pierce Biotechnology Inc, Rockford, Ill.) diluted in 10 mM sodium acetate (pH 4.5) is directly immobilized across a CM5 research grade biosensor chip using a standard amine coupling kit according to manufacturer's instructions and procedures at 25 μg/ml. Unreacted moieties on the biosensor surface are blocked with ethanolamine. Modified carboxymethyl dextran surface in flowcell 2 and 4 is used as a reaction surface. Unmodified carboxymethyl dextran without goat anti-mouse IgG in flow cell 1 and 3 is used as the reference surface. For kinetic analysis, rate equations derived from the 1:1 Langmuir binding model are fitted simultaneously to association and dissociation phases of all eight injections (using global fit analysis) with the use of Biaevaluation 4.0.1 software. Purified antibodies or DVD-Ig are diluted in HEPES-buffered saline for capture across goat anti-mouse IgG specific reaction surfaces. Antibodies or DVD-Ig to be captured as a ligand (25 μg/ml) are injected over reaction matrices at a flow rate of 5 μl/min. The association and dissociation rate constants, kₒₙ (M⁻¹s⁻¹) and koff (s⁻¹) are determined under a continuous flow rate of 25 μl/min. Rate constants are derived by making kinetic binding measurements at different antigen concentrations ranging from 10-200 nM. The equilibrium dissociation constant (M) of the reaction between antibodies or DVD-Igs and the target antigen is then calculated from the kinetic rate constants by the following formula: KD=koff/kₒₙ. Binding is recorded as a function of time and kinetic rate constants are calculated.

[3] = biological target: human DLL4 extracellular domain (human, UniProt Q9NR61 27-529); experiment: cell-based or functional assay
DLL ECD His tag = biological target: T3, DLL ECD His tag (UniProt Q9NR61 27-529, limits assumed); experiment: Biacore SPR
T3 construct: extracellular domain; Bought reagent; also called DLL4; DLL-4; not shown: His tag

MSP Receptor ECD-His tag = biological target: T4, MSP Receptor ECD-His tag (UniProt Q04912 25-957, limits assumed); experiment: Biacore SPR
T4 construct: extracellular domain; Bought reagent; also called RON; not shown: His tag

IGF-2 = biological target: T5, IGF-2 (UniProt P01344 25-91); experiment: Biacore SPR
T5 construct: Bought reagent
Protocol: as §1

HGF = biological target: T6, HGF (UniProt P14210 32-728); experiment: Biacore SPR
T6 construct: Bought reagent
T6 sequence (P14210 32-728 limits assumed): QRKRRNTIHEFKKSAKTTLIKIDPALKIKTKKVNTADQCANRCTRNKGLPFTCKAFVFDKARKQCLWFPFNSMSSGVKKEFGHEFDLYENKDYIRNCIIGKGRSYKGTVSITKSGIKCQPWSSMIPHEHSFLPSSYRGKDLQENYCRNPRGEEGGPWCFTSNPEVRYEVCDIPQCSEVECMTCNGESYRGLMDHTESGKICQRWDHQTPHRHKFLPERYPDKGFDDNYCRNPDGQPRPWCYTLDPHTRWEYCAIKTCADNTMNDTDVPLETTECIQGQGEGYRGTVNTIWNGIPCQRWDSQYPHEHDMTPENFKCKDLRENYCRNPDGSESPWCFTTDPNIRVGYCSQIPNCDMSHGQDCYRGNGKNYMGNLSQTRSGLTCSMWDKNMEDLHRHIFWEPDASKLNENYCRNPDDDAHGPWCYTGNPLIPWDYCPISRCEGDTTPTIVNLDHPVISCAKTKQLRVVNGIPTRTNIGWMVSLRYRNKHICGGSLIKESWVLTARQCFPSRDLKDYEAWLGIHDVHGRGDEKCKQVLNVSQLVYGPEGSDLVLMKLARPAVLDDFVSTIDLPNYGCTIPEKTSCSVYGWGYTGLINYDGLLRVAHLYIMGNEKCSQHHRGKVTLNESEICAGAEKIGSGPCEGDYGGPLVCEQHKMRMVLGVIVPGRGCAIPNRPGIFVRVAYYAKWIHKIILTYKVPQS
Protocol: as §1

B1: DVD534 (bispecific antibody, human IgG1, kappa, lambda, L234A L235A)
heavy: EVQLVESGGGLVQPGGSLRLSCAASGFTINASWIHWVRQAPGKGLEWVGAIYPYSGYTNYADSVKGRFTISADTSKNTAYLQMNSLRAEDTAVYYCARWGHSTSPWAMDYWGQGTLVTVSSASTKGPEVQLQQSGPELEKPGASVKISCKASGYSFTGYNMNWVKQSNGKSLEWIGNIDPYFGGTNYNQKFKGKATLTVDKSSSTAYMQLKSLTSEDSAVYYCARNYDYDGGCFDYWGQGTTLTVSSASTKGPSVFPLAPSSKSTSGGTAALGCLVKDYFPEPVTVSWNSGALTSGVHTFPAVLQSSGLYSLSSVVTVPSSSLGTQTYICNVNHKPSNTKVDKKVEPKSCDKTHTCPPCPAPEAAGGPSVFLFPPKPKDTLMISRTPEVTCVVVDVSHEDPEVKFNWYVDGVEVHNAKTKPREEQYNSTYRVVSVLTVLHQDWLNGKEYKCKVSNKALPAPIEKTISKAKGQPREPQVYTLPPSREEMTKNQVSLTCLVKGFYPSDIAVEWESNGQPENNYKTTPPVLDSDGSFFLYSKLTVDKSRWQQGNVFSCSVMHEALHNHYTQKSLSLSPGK
light: DIQMTQSPSSLSASVGDRVTITCRASQVIRRSLAWYQQKPGKAPKLLIYAASNLASGVPSRFSGSGSGTDFTLTISSLQPEDFATYYCQQSNTSPLTFGQGTKVEIKRTVAAPSVFIFPPQAVVTQESALTTSPGETVTLTCRSSTGAVTTSNYANWVQEKPDHLFTGLIGGTNNRAPGVPARFSGSLIGDKAALTITGAQTEDEAIYFCALWYSNHWVFGGGTKLTVLGQPKAAPSVTLFPPSSEELQANKATLVCLISDFYPGAVTVAWKADSSPVKAGVETTTPSKQSNNKYAASSYLSLTPEQWKSHRSYSCQVTHEGSTVEKTVAPTECS
notes: DVD-Ig; outer AB071 (VEGF), inner AB073 (DLL4); HC short, LC long linker; also called DVD534H; DVD534L
- EC50 [1]: 470 pM

B2: DVD047 (bispecific antibody, human IgG1, kappa)
heavy: not shown
light: DIQMTQSPSSLSASVGDRVTITCSASQDISNYLNWYQQKPGKAPKVLIYFTSSLHSGVPSRFSGSGSGTDFTLTISSLQPEDFATYYCQQYSTVPWTFGQGTKVEIKRTVAAPDVVMTQSPLSLPVTPGEPASISCRSSQSLLHSNGFNYVDWYLQKPGQSPHLLIYFGSYRASGVPDRFSGSGSGTDFTLKISRVEAEDVGVYYCMQALQTPPWTFGQGTKVEIRRTVAAPSVFIFPPSDEQLKSGTASVVCLLNNFYPREAKVQWKVDNALQSGNSQESVTEQDSKDSTYSLSSTLTLSKADYEKHKVYACEVTHQGLSSPVTKSFNRGEC
- % inhibition of HUVEC proliferation at 0.67 nM [2]: -5%
- % inhibition of HUVEC proliferation at 6.7 nM [2]: 31%
- % inhibition of HUVEC proliferation at 67 nM [2]: 65%

B3: AB047 (antibody, human IgG1, kappa, V domains shown)
VH: QVQLQQSGAELVKPGASVKISCKASGYTFTDYYINWVKLAPGQGLEWIGWIYPGSGNTKYNEKFKGKATLTIDTSSSTAYMQLSSLTSEDTAVYFCVRDSPFFDYWGQGTLLTVSS
VL: DIVLTQSPDSLAVSLGERVTMNCKSSQSLLNSGMRKSFLAWYQQKPGQSPKLLIYWASTRESGVPDRFTGSGSGTDFTLTISSVQAEDVAVYYCKQSYHLFTFGSGTKLEIKR
- Kd (Placental GF): 28.4 pM
- koff (Placental GF): 0.000108 s⁻¹
- kon (Placental GF): 3.8e+06 M⁻¹ s⁻¹

B4: DVD510 (bispecific antibody, human IgG1, kappa)
heavy: not shown
light: DIQMTQSPSSLSASVGDRVTITCRASQVIRRSLAWYQQKPGKAPKLLIYAASNLASGVPSRFSGSGSGTDFTLTISSLQPEDFATYYCQQSNTSPLTFGQGTKVEIKRTVAAPSVFIFPPDIQMTQSSSYLSVSLGGRVTITCKASDHINNWLAWYQQKPGNAPRLLISGATSLETGVPSRFSGSGSGKDYTLSITSLQTEDVATYYCQQYWSIPLTFGAGTKLELKRTVAAPSVFIFPPSDEQLKSGTASVVCLLNNFYPREAKVQWKVDNALQSGNSQESVTEQDSKDSTYSLSSTLTLSKADYEKHKVYACEVTHQGLSSPVTKSFNRGEC
notes: DVD-Ig; outer AB071 (VEGF), inner AB072 (DLL4); HC short, LC long linker; also called DVD510H; DVD510L
- EC50 [1]: 420 pM

B5: AB015 (antibody, human IgG1, kappa)
heavy: not shown
light: DIQMTQSPSSLSASVGDRVTITCRASQDVSTAVAWYQQKPGKAPKLLIYSASFLYSGVPSRFSGSGSGTDFTLTISSLQPEDFATTYYCQQSYTGTVTFGQGTKVEIKRTVAAPSVFIFPPSDEQLKSGTASVVCLLNNFYPREAKVQWKVDNALQSGNSQESVTEQDSKDSTYSLSSTLTLSKADYEKHKVYACEVTHQGLSSPVTKSFNRGEC
- Soluble Flt1 Assay, % of Neutralization @ 9.2 nM Ab [3]: 75.2%
- Soluble Flt1 Assay, % of Neutralization @ 27.7 nM Ab [3]: 78.7%
- Soluble Flt1 Assay, % of Neutralization @ 83.3 nM Ab [3]: 86.6%

B6: AB015 (antibody, human IgG1, kappa)
heavy: not shown
light: B5 light
- Kd (DLL ECD His tag): 414 pM
- koff (DLL ECD His tag): 0.000166 s⁻¹
- kon (DLL ECD His tag): 400000 M⁻¹ s⁻¹

B7: DVD464 (bispecific antibody, human IgG1, kappa)
heavy: not shown
light: DIQMTQSPSSLSASVGDRVTITCRASQVIRRSLAWYQQKPGKAPKLLIYAASNLASGVPSRFSGSGSGTDFTLTISSLQPEDFATYYCQQSNTSPLTFGQGTKVEIKRTVAAPSVFIFPPDIVMTQSPDSLAVSLGERATISCRASESVDNYGISFMKWFQQKPGQPPKLLIYAASNQGSGVPDRFSGSGSGTDFTLTISSLQAEDVAVYYCQQSKEVPWTFGGGTKVEIKRTVAAPSVFIFPPSDEQLKSGTASVVCLLNNFYPREAKVQWKVDNALQSGNSQESVTEQDSKDSTYSLSSTLTLSKADYEKHKVYACEVTHQGLSSPVTKSFNRGEC
notes: DVD-Ig; outer AB071 (VEGF), inner AB069 (DLL4); HC short, LC long linker; also called DVD464H; DVD464L
- EC50 [1]: 800 pM

B8: DVD506 (bispecific antibody, human IgG1, kappa)
heavy: not shown
light: DIQMTQSPSSLSASVGDRVTITCSASQDISNYLNWYQQKPGKAPKVLIYFTSSLHSGVPSRFSGSGSGTDFTLTISSLQPEDFATYYCQQYSTVPWTFGQGTKVEIKRTVAAPSVFIFPPDIQMTQSSSYLSVSLGGRVTITCKASDHINNWLAWYQQKPGNAPRLLISGATSLETGVPSRFSGSGSGKDYTLSITSLQTEDVATYYCQQYWSIPLTFGAGTKLELKRTVAAPSVFIFPPSDEQLKSGTASVVCLLNNFYPREAKVQWKVDNALQSGNSQESVTEQDSKDSTYSLSSTLTLSKADYEKHKVYACEVTHQGLSSPVTKSFNRGEC
notes: DVD-Ig; HC short, LC long linker; also called DVD506H; DVD506L
- EC50 [1]: 320 pM

B9: DVD043 (bispecific antibody, human IgG1, kappa)
heavy: not shown
light: DIQMTQSPSSLSASVGDRVTITCSASQDISNYLNWYQQKPGKAPKVLIYFTSSLHSGVPSRFSGSGSGTDFTLTISSLQPEDFATYYCQQYSTVPWTFGQGTKVEIKRTVAAPDIQMTQSPSSLSASVGDRVTITCRASQDVSTAVAWYQQKPGKAPKLLIYSASFLYSGVPSRFSGSGSGTDFTLTISSLQPEDFATTYYCQQSYTGTVTFGQGTKVEIKRTVAAPSVFIFPPSDEQLKSGTASVVCLLNNFYPREAKVQWKVDNALQSGNSQESVTEQDSKDSTYSLSSTLTLSKADYEKHKVYACEVTHQGLSSPVTKSFNRGEC
- Soluble Flt1 Assay, % of Neutralization @ 9.2 nM Ab [3]: 1.1%
- Soluble Flt1 Assay, % of Neutralization @ 27.7 nM Ab [3]: 50.3%
- Soluble Flt1 Assay, % of Neutralization @ 83.3 nM Ab [3]: 57.9%
- % inhibition of HUVEC proliferation at 0.67 nM [2]: -22%
- % inhibition of HUVEC proliferation at 6.7 nM [2]: 51%
- % inhibition of HUVEC proliferation at 67 nM [2]: 89%

B10: DVD043 (bispecific antibody, human IgG1, kappa)
heavy: not shown
light: B9 light
notes: N-terminal VD VEGF, C-terminal VD DLL4; also called DVD043H; DVD043L
- Kd (DLL ECD His tag): 2320 pM
- koff (DLL ECD His tag): 0.000217 s⁻¹
- kon (DLL ECD His tag): 93700 M⁻¹ s⁻¹

B11: DVD486 (bispecific antibody, human IgG1, kappa)
heavy: not shown
light: DIQMTQSPSSLSASVGDRVTITCRASQVIRRSLAWYQQKPGKAPKLLIYAASNLASGVPSRFSGSGSGTDFTLTISSLQPEDFATYYCQQSNTSPLTFGQGTKVEIKRTVAAPSVFIFPPDIQMTQSPSSLSASVGDRVTITCRASQDVSTAVAWYQQKPGKAPKLLIYSASFLYSGVPSRFSGSGSGTDFTLTISSLQPEDFATTYYCQQSYTGTVTFGQGTKVEIKRTVAAPSVFIFPPSDEQLKSGTASVVCLLNNFYPREAKVQWKVDNALQSGNSQESVTEQDSKDSTYSLSSTLTLSKADYEKHKVYACEVTHQGLSSPVTKSFNRGEC
notes: DVD-Ig; outer AB071 (VEGF), inner AB015 (DLL4); HC short, LC long linker; also called DVD486H; DVD486L
- EC50 [1]: 590 pM

B12: AB005 (antibody, human IgG1, kappa, V domains shown)
VH: EVQLVQSGGGLVKPGGSLRLSCAASGFTFSSYAMHWVRQAPGKGLEWVAVISYDGSNKYYADSVKGRFTISRDNSKNTLYLQMNSLRAEDTAVYYCARFSGWPNNYYYYGMDVWGQGTTVTVSS
VL: DVVMTQSPLSLPVTPGEPASISCRSSQSLLHSNGFNYVDWYLQKPGQSPHLLIYFGSYRASGVPDRFSGSGSGTDFTLKISRVEAEDVGVYYCMQALQTPPWTFGQGTKVEIRR
- Kd (MSP Receptor ECD-His tag): 20200 pM and 20100 pM
- koff (MSP Receptor ECD-His tag): 0.000739 s⁻¹
- kon (MSP Receptor ECD-His tag): 36600 M⁻¹ s⁻¹

B13: DVD041 (bispecific antibody, human IgG1, lambda)
heavy: not shown
light: DIQMTQSPSSLSASVGDRVTITCSASQDISNYLNWYQQKPGKAPKVLIYFTSSLHSGVPSRFSGSGSGTDFTLTISSLQPEDFATYYCQQYSTVPWTFGQGTKVEIKRTVAAPQSVLTQPPSVSAAPGQKVTISCSGSSSNIENNHVSWYQQLPGTAPKLLIYDNNKRPSGIPDRFSGSKSGTSATLGITGLQTGDEADYYCETWDTSLSAGRVFGGGTKLTVLGQPKAAPSVTLFPPSSEELQANKATLVCLISDFYPGAVTVAWKADSSPVKAGVETTTPSKQSNNKYAASSYLSLTPEQWKSHRSYSCQVTHEGSTVEKTVAPTECS
notes: N-terminal VD VEGF, C-terminal VD IGF1,2; also called DVD041H; DVD041L
- Kd (IGF-2): < 12.4 pM
- koff (IGF-2): < 1e-06 s⁻¹
- kon (IGF-2): 80900 M⁻¹ s⁻¹

B14: DVD033 (bispecific antibody, human IgG1, kappa)
heavy: not shown
light: DVVMTQSPLSLPVTPGEPASISCRSSQSLLHSNGFNYVDWYLQKPGQSPHLLIYFGSYRASGVPDRFSGSGSGTDFTLKISRVEAEDVGVYYCMQALQTPPWTFGQGTKVEIRRTVAAPDIQMTQSPSSVSASVGDRVTITCRASQGISSWLAWYQQKPGKAPNLLIYEASSLQSGVPSRFGGSGSGTDFTLTISSLQPEDFATYYCQQANGFPWTFGQGTKVEIKRTVAAPSVFIFPPSDEQLKSGTASVVCLLNNFYPREAKVQWKVDNALQSGNSQESVTEQDSKDSTYSLSSTLTLSKADYEKHKVYACEVTHQGLSSPVTKSFNRGEC
notes: N-terminal VD RON, C-terminal VD HGF; also called DVD033H; DVD033L
- Kd (HGF): 310 pM
- koff (HGF): 9.2e-05 s⁻¹
- kon (HGF): 297000 M⁻¹ s⁻¹
- Kd (MSP Receptor ECD-His tag): 7600 pM
- koff (MSP Receptor ECD-His tag): 0.00118 s⁻¹
- kon (MSP Receptor ECD-His tag): 156000 M⁻¹ s⁻¹
